Laboratory results from paper PMC4141020 (Traffic (Copenhagen, Denmark), 2014).

Target: T1, Mpl expressed as an mKO2 fusion protein (Mpl^mKO2) (human, UniProt P40238 26-635)
T1 sequence (looked up): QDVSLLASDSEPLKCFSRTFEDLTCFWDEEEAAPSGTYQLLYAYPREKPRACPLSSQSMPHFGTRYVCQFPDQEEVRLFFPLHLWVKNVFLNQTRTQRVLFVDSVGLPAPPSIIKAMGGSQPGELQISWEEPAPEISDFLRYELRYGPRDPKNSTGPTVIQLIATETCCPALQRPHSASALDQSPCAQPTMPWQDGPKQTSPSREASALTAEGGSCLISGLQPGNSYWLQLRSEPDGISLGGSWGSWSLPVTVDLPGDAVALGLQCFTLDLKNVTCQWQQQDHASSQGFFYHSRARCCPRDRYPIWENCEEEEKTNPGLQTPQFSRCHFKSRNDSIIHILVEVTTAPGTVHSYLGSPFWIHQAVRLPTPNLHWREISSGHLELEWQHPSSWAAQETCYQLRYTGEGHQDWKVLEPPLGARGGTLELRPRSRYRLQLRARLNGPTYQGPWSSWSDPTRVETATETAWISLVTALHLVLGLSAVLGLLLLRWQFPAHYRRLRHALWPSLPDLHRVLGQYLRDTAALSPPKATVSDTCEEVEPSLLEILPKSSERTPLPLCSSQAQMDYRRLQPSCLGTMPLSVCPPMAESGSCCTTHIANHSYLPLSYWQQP
Experiment: co-IP

B1: Jak2WT (endogenous wildtype Jak2 of K562 cells) (enzyme, human (endogenous in K562), UniProt O60674 1-1132, looked up)
chain: MGMACLTMTEMEGTSTSSIYQNGDISGNANSMKQIDPVLQVYLYHSLGKSEADYLTFPSGEYVAEEICIAASKACGITPVYHNMFALMSETERIWYPPNHVFHIDESTRHNVLYRIRFYFPRWYCSGSNRAYRHGISRGAEAPLLDDFVMSYLFAQWRHDFVHGWIKVPVTHETQEECLGMAVLDMMRIAKENDQTPLAIYNSISYKTFLPKCIRAKIQDYHILTRKRIRYRFRRFIQQFSQCKATARNLKLKYLINLETLQSAFYTEKFEVKEPGSGPSGEEIFATIIITGNGGIQWSRGKHKESETLTEQDLQLYCDFPNIIDVSIKQANQEGSNESRVVTIHKQDGKNLEIELSSLREALSFVSLIDGYYRLTADAHHYLCKEVAPPAVLENIQSNCHGPISMDFAISKLKKAGNQTGLYVLRCSPKDFNKYFLTFAVERENVIEYKHCLITKNENEEYNLSGTKKNFSSLKDLLNCYQMETVRSDNIIFQFTKCCPPKPKDKSNLLVFRTNGVSDVPTSPTLQRPTHMNQMVFHKIRNEDLIFNESLGQGTFTKIFKGVRREVGDYGQLHETEVLLKVLDKAHRNYSESFFEAASMMSKLSHKHLVLNYGVCVCGDENILVQEFVKFGSLDTYLKKNKNCINILWKLEVAKQLAWAMHFLEENTLIHGNVCAKNILLIREEDRKTGNPPFIKLSDPGISITVLPKDILQERIPWVPPECIENPKNLNLATDKWSFGTTLWEICSGGDKPLSALDSQRKLQFYEDRHQLPAPKWAELANLINNCMDYEPDFRPSFRAIIRDLNSLFTPDYELLTENDMLPNMRIGALGFSGAFEDRDPTQFEERHLKFLQQLGKGNFGSVEMCRYDPLQDNTGEVVAVKKLQHSTEEHLRDFEREIEILKSLQHDNIVKYKGVCYSAGRRNLKLIMEYLPYGSLRDYLQKHKERIDHIKLLQYTSQICKGMEYLGTKRYIHRDLATRNILVENENRVKIGDFGLTKVLPQDKEYYKVKEPGESPIFWYAPESLTESKFSVASDVWSFGVVLYELFTYIEKSKSPPAEFMRMIGNDKQGQMIVFHLIELLKNNGRLPRPDGCPDEIYMIMTECWNNNVNQRPSFRDLALRVDQIRDNMAG
fold more co-immunoprecipitated than Jak2V617F with endogenous Mpl in HEL cells: ~8 fold
